Assay results taken from patent US20030068675, “Position dependent recognition of GNN nucleotide triplets by zinc fingers” (published 2003).

Legend:
Assay in all cases: EMSA
Conditions in all cases: tags: MBP fusion
[1] = biological target: T1, ZFP SBS#544 (synthetic)
T1 chain: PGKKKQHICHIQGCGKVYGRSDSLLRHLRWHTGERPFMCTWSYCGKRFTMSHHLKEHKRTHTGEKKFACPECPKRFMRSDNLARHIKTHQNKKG
How it was run: (§1)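 Purified ZFP was titrated against labeled double-stranded target (1 nM or lower, at least 10-fold below expected Kd) carrying the natural binding site with flanks. Binding buffer was 10 mM Tris pH 7.5, 100 mM KCl, 1 mM MgCl2, 0.1 mM ZnCl2, 5 mM DTT, 10% glycerol, 0.02% BSA, with equilibration for at least 45 min. Bound and free target were separated on a 10% polyacrylamide gel.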

[2] = biological target: T2, ZFP SBS#548 (synthetic)
T2 chain: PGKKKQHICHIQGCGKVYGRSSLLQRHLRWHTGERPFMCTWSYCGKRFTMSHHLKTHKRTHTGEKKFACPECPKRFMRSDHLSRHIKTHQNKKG
How it was run: as §1

[3] = biological target: T3, ZFP SBS#552 (synthetic)
T3 chain: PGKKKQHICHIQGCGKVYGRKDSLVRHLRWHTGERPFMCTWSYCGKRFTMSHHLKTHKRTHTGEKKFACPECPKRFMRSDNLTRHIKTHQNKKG
How it was run: as §1

[4] = biological target: T4, ZFP SBS#549 (synthetic)
T4 chain: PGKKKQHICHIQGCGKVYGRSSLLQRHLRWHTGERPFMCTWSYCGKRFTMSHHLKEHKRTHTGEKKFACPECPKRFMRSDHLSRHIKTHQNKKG
How it was run: as §1

[5] = biological target: T5, ZFP SBS#554 (synthetic)
T5 chain: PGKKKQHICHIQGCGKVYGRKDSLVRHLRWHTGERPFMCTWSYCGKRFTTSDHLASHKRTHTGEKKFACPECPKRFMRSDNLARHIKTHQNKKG
How it was run: as §1

[6] = biological target: ZFP SBS#551 (synthetic)
How it was run: as §1

[7] = biological target: ZFP SBS#546 (synthetic)
How it was run: as §1

[8] = biological target: T6, ZFP SBS#545 (synthetic)
T6 chain: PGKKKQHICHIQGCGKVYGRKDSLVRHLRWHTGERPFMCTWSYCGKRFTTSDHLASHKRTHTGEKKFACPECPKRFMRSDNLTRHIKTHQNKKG
How it was run: as §1

[9] = biological target: T7, ZFP SBS#553 (synthetic)
T7 chain: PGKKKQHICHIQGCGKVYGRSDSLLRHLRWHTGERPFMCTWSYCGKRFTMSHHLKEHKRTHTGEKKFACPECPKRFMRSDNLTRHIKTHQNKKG
How it was run: as §1

[10] = biological target: T8, ZFP SBS#547 (synthetic)
T8 chain: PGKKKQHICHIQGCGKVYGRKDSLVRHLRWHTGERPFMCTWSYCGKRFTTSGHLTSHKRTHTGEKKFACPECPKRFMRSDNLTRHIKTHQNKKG
How it was run: as §1

[11] = biological target: T9, ZFP SBS#550 (synthetic)
T9 chain: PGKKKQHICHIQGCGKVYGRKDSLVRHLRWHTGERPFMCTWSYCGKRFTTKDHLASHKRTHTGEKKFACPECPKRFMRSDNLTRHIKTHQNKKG
How it was run: as §1

[12] = biological target: T10, ZFP SBS#560 (synthetic)
T10 chain: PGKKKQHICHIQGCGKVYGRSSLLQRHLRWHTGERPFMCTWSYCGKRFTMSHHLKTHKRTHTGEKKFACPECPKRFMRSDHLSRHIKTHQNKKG
How it was run: as §1

[13] = biological target: ZFP SBS#543 (synthetic)
How it was run: as §1

[14] = biological target: ZFP SBS#1457 (synthetic)
How it was run: as §1

[15] = biological target: ZFP SBS#1500 (synthetic)
How it was run: as §1

[16] = biological target: T11, ZFP SBS#1460 (synthetic)
T11 chain: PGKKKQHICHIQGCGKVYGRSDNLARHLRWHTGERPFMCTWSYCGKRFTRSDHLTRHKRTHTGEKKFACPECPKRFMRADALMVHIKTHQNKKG
How it was run: as §1

[17] = biological target: ZFP SBS#1496 (synthetic)
How it was run: as §1

[18] = biological target: T12, ZFP SBS#1494 (synthetic)
T12 chain: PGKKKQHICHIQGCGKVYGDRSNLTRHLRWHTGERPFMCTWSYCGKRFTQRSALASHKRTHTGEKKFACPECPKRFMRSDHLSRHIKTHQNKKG
How it was run: as §1

[19] = biological target: T13, ZFP SBS#1486 (synthetic)
T13 chain: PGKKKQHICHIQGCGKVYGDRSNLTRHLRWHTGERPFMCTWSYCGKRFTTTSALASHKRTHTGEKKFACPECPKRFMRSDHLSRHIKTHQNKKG
How it was run: as §1

[20] = biological target: ZFP SBS#1488 (synthetic)
How it was run: as §1

[21] = biological target: T14, ZFP SBS#1492 (synthetic)
T14 chain: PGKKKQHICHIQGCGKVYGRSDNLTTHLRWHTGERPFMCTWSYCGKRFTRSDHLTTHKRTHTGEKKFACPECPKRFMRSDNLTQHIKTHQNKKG
How it was run: as §1

[22] = biological target: ZFP SBS#1493 (synthetic)
How it was run: as §1

[23] = biological target: ZFP SBS#1497 (synthetic)
How it was run: as §1

[24] = biological target: T15, ZFP SBS#1498 (synthetic)
T15 chain: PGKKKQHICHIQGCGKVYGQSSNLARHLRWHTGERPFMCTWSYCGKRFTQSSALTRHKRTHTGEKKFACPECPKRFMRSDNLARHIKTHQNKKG
How it was run: as §1

[25] = biological target: T16, ZFP SBS#1499 (synthetic)
T16 chain: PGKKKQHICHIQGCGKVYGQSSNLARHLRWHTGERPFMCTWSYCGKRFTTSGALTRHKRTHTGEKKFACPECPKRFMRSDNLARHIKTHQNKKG
How it was run: as §1

[26] = biological target: ZFP SBS#1522 (synthetic)
How it was run: as §1

Chain of ZFP SBS#1457 (synthetic) (chain, as listed by the source): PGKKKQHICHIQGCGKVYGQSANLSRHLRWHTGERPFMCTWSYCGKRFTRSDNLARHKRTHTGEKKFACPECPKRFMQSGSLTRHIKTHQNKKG
Chain of ZFP SBS#1522 (synthetic) (chain, as listed by the source): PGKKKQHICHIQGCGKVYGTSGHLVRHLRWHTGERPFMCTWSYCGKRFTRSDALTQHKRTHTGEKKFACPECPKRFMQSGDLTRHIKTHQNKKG
Chain of ZFP SBS#1496 (synthetic) (chain, as listed by the source): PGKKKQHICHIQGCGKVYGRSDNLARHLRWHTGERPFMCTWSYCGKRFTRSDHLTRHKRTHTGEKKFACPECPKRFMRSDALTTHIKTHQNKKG
Chain of ZFP SBS#1488 (synthetic) (chain, as listed by the source): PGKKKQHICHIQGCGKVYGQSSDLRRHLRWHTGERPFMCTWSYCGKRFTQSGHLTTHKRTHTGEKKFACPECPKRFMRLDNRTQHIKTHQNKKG
Chain of ZFP SBS#546 (synthetic) (chain, as listed by the source): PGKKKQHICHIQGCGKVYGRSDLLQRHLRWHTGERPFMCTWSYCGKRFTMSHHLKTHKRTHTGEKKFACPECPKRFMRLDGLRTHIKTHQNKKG

B1: GAGTGTGTGA (dsDNA)
DNA 1: GAGTGTGTGA
DNA 2: TCACACACTC
Q: For B1, which Kd [1] is on record?
A: The Kd was 125 nM.

Q: And the Kd [2]?
A: Its Kd is 500 nM.

Q: And the Kd [3]?
A: The Kd was 31 nM.

Q: What about the Kd [4] of the same binder?
A: The Kd was 500 nM.

Q: And the Kd [5]?
A: The Kd was 62.5 nM.

Q: What about the Kd [6] of the same binder?
A: Its Kd is 50 nM.

Q: What about the Kd [7] of the same binder?
A: Its Kd is 500 nM.

Q: What about the Kd [8] of the same binder?
A: The Kd was 32 nM.

Q: And the Kd [9]?
A: Its Kd is 125 nM.

Q: What about the Kd [10] of the same binder?
A: The Kd was 500 nM.

Q: And the Kd [11]?
A: Its Kd is 20 nM.

Q: What about the Kd [12] of the same binder?
A: Its Kd is 500 nM.

Q: And the Kd [13]?
A: Its Kd is 50 nM.

B2: GCAGAGGAA (dsDNA)
DNA 1: GCAGAGGAA
DNA 2: TTCCTCTGC
Q: Which Kd [14] does the source give for B2 here?
A: Its Kd is 0.014 nM.

Q: What about the Kd [15] of the same binder?
A: Its Kd is 0.003 nM.

B3: TTGGGGGAG (dsDNA)
DNA 1: TTGGGGGAG
DNA 2: CTCCCCCAA
Q: B3 was tested. Which Kd [16] did it give?
A: The Kd was 0.007 nM.

Q: And the Kd [17]?
A: Its Kd is 0.065 nM.

B4: GGGTTTGAC (dsDNA)
DNA 1: GGGTTTGAC
DNA 2: GTCAAACCC
Q: Which Kd [18] does the source give for B4 here?
A: Its Kd is 0.255 nM.

Q: What about the Kd [19] of the same binder?
A: The Kd was 0.085 nM.

B5: AAGTGGTAG (dsDNA)
DNA 1: AAGTGGTAG
DNA 2: CTACCACTT
Q: Which results are given for B5?
A: Kd [20]: 5.64 nM; Kd [21]: 1.37 nM; Kd [22]: 15.1 nM

B6: GAGGCTCTT (dsDNA)
DNA 1: GAGGCTCTT
DNA 2: AAGAGCCTC
Q: Which Kd [23] does the source give for B6 here?
A: Its Kd is 0.007 nM.

B7: GAGGTTGAT (dsDNA)
DNA 1: GAGGTTGAT
DNA 2: ATCAACCTC
Q: With B7 as the binder, how does the Kd [24] read?
A: Its Kd is 0.101 nM.

Q: What about the Kd [25] of the same binder?
A: The Kd was 0.02 nM.

B8: GCAATGGGT (dsDNA)
DNA 1: GCAATGGGT
DNA 2: ACCCATTGC
Q: B8 was tested. Which Kd [26] did it give?
A: Its Kd is 0.08 nM.
